Assay results reported in US20200024330A1.

How the values were obtained:
Assay in all cases: cell-based or functional assay
[1] = biological target: HIV-1 92BR020 envelope glycoprotein (Env), clade B (HIV-1)
[2] = biological target: HIV-1 92RW020 envelope glycoprotein (Env), clade A (HIV-1)
[3] = biological target: HIV-1 92TH021 envelope glycoprotein (Env), clade AE (HIV-1)
[4] = biological target: HIV-1 92UG005 envelope glycoprotein (Env), clade D (HIV-1)
[5] = biological target: HIV-1 92UG024 envelope glycoprotein (Env), clade D (HIV-1)
[6] = biological target: HIV-1 93IN905 envelope glycoprotein (Env), clade C (HIV-1)
[7] = biological target: HIV-1 93UG077 envelope glycoprotein (Env), clade A (HIV-1)
[8] = biological target: HIV-1 94UG103 envelope glycoprotein (Env), clade A (HIV-1)
[9] = biological target: HIV-1 APV13 envelope glycoprotein (Env), clade B (HIV-1)
[10] = biological target: HIV-1 APV17 envelope glycoprotein (Env), clade B (HIV-1)
[11] = biological target: HIV-1 APV6 envelope glycoprotein (Env), clade B (HIV-1)
[12] = biological target: HIV-1 CMU02 envelope glycoprotein (Env), clade AE (HIV-1)
[13] = biological target: HIV-1 JRCSF envelope glycoprotein (Env), clade B (HIV-1) (UniProt P20871)
[14] = biological target: HIV-1 JRFL envelope glycoprotein (Env), clade B (HIV-1)
[15] = biological target: HIV-1 MGRM-A-010 envelope glycoprotein (Env), clade A (HIV-1)
[16] = biological target: HIV-1 MGRM-AG-005 envelope glycoprotein (Env), clade AG (HIV-1)
[17] = biological target: HIV-1 MGRM-C-026 envelope glycoprotein (Env), clade C (HIV-1)
[18] = biological target: HIV-1 MGRM-C-027 envelope glycoprotein (Env), clade C (HIV-1)
[19] = biological target: HIV-1 MGRM-C-028 envelope glycoprotein (Env), clade C (HIV-1)
[20] = biological target: HIV-1 MGRM-D-001 envelope glycoprotein (Env), clade D (HIV-1)
[21] = biological target: HIV-1 MGRM-D-018 envelope glycoprotein (Env), clade D (HIV-1)
[22] = biological target: HIV-1 NL43 envelope glycoprotein (Env), clade B (HIV-1)
[23] = biological target: aMLV envelope protein (negative control virus)

B1: PGT-135 monoclonal antibody (clones 5343_B08 and 5344_E16) (antibody, V domains shown)
VH: QLQMQESGPGLVKPSETLSLSCTVSGDSIRGGEWGDKDYHWGWVRHSAGKGLEWIGSIHWRGTTHYKESLRRRVSMSIDTSRNWFSLRLASVTAADTAVYFCARHRHHDVFMLVPIAGWFDVWGPGVQVTVSS
VL: EIVMTQSPDTLSVSPGETVTLSCRASQNINKNLAWYQYKPGQSPRLVIFETYSKIAAFPARFVASGSGTEFTLTINNMQSEDVAVYYCQQYEEWPRTFGQGTKVDIK
Work on B1 yielded an IC50 (neutralization of pseudovirus) [1] of 0.104 µg/mL, an IC80 (neutralization of pseudovirus) [1] of 0.253 µg/mL and an IC90 (neutralization of pseudovirus) [1] of 0.43 µg/mL. For the same binder, the IC95 (neutralization of pseudovirus) [1] was 0.72 µg/mL, the IC50 (neutralization of pseudovirus) [2] was 0.157 µg/mL and the IC80 (neutralization of pseudovirus) [2] was 3.46 µg/mL. For the same binder, the IC90 (neutralization of pseudovirus) [2] was > 10 µg/mL, the IC95 (neutralization of pseudovirus) [2] was > 10 µg/mL and the IC50 (neutralization of pseudovirus) [3] was > 10 µg/mL. For the same binder, the IC80 (neutralization of pseudovirus) [3] was > 10 µg/mL, the IC90 (neutralization of pseudovirus) [3] was > 10 µg/mL and the IC95 (neutralization of pseudovirus) [3] was > 10 µg/mL. For the same binder, the IC50 (neutralization of pseudovirus) [4] was > 10 µg/mL, the IC80 (neutralization of pseudovirus) [4] was > 10 µg/mL and the IC90 (neutralization of pseudovirus) [4] was > 10 µg/mL. The IC95 (neutralization of pseudovirus) [4] was > 10 µg/mL, the IC50 (neutralization of pseudovirus) [5] was 0.0139 µg/mL and the IC80 (neutralization of pseudovirus) [5] was 0.054 µg/mL. For the same binder, the IC90 (neutralization of pseudovirus) [5] was 0.122 µg/mL, the IC95 (neutralization of pseudovirus) [5] was 0.267 µg/mL and the IC50 (neutralization of pseudovirus) [6] was 0.0183 µg/mL. For the same binder, the IC80 (neutralization of pseudovirus) [6] was 0.0648 µg/mL, the IC90 (neutralization of pseudovirus) [6] was 0.136 µg/mL and the IC95 (neutralization of pseudovirus) [6] was 0.268 µg/mL. For the same binder, the IC50 (neutralization of pseudovirus) [7] was > 10 µg/mL, the IC80 (neutralization of pseudovirus) [7] was > 10 µg/mL and the IC90 (neutralization of pseudovirus) [7] was > 10 µg/mL. The IC95 (neutralization of pseudovirus) [7] was > 10 µg/mL, the IC50 (neutralization of pseudovirus) [8] was > 10 µg/mL and the IC80 (neutralization of pseudovirus) [8] was > 10 µg/mL. The IC90 (neutralization of pseudovirus) [8] was > 10 µg/mL, the IC95 (neutralization of pseudovirus) [8] was > 10 µg/mL and the IC50 (neutralization of pseudovirus) [9] was 0.545 µg/mL. The IC80 (neutralization of pseudovirus) [9] was > 10 µg/mL, the IC90 (neutralization of pseudovirus) [9] was > 10 µg/mL and the IC95 (neutralization of pseudovirus) [9] was > 10 µg/mL. For the same binder, the IC50 (neutralization of pseudovirus) [10] was > 10 µg/mL, the IC80 (neutralization of pseudovirus) [10] was > 10 µg/mL and the IC90 (neutralization of pseudovirus) [10] was > 10 µg/mL. The IC95 (neutralization of pseudovirus) [10] was > 10 µg/mL, the IC50 (neutralization of pseudovirus) [11] was > 10 µg/mL and the IC80 (neutralization of pseudovirus) [11] was > 10 µg/mL. The IC90 (neutralization of pseudovirus) [11] was > 10 µg/mL, the IC95 (neutralization of pseudovirus) [11] was > 10 µg/mL and the IC50 (neutralization of pseudovirus) [12] was > 10 µg/mL. For the same binder, the IC80 (neutralization of pseudovirus) [12] was > 10 µg/mL, the IC90 (neutralization of pseudovirus) [12] was > 10 µg/mL and the IC95 (neutralization of pseudovirus) [12] was > 10 µg/mL. The IC50 (neutralization of pseudovirus) [13] was 0.113 µg/mL, the IC80 (neutralization of pseudovirus) [13] was 0.503 µg/mL and the IC90 (neutralization of pseudovirus) [13] was 1.47 µg/mL. The IC95 (neutralization of pseudovirus) [13] was 8.3 µg/mL, the IC50 (neutralization of pseudovirus) [14] was > 10 µg/mL and the IC80 (neutralization of pseudovirus) [14] was > 10 µg/mL. The IC90 (neutralization of pseudovirus) [14] was > 10 µg/mL, the IC95 (neutralization of pseudovirus) [14] was > 10 µg/mL and the IC50 (neutralization of pseudovirus) [15] was > 10 µg/mL. The IC80 (neutralization of pseudovirus) [15] was > 10 µg/mL, the IC90 (neutralization of pseudovirus) [15] was > 10 µg/mL and the IC95 (neutralization of pseudovirus) [15] was > 10 µg/mL. For the same binder, the IC50 (neutralization of pseudovirus) [16] was > 10 µg/mL, the IC80 (neutralization of pseudovirus) [16] was > 10 µg/mL and the IC90 (neutralization of pseudovirus) [16] was > 10 µg/mL. For the same binder, the IC95 (neutralization of pseudovirus) [16] was > 10 µg/mL, the IC50 (neutralization of pseudovirus) [17] was 0.0123 µg/mL and the IC80 (neutralization of pseudovirus) [17] was 0.0562 µg/mL. The IC90 (neutralization of pseudovirus) [17] was 0.139 µg/mL, the IC95 (neutralization of pseudovirus) [17] was 0.331 µg/mL and the IC50 (neutralization of pseudovirus) [18] was > 10 µg/mL. The IC80 (neutralization of pseudovirus) [18] was > 10 µg/mL, the IC90 (neutralization of pseudovirus) [18] was > 10 µg/mL and the IC95 (neutralization of pseudovirus) [18] was > 10 µg/mL. For the same binder, the IC50 (neutralization of pseudovirus) [19] was 2.16 µg/mL, the IC80 (neutralization of pseudovirus) [19] was > 10 µg/mL and the IC90 (neutralization of pseudovirus) [19] was > 10 µg/mL. For the same binder, the IC95 (neutralization of pseudovirus) [19] was > 10 µg/mL, the IC50 (neutralization of pseudovirus) [20] was > 10 µg/mL and the IC80 (neutralization of pseudovirus) [20] was > 10 µg/mL. The IC90 (neutralization of pseudovirus) [20] was > 10 µg/mL, the IC95 (neutralization of pseudovirus) [20] was > 10 µg/mL and the IC50 (neutralization of pseudovirus) [21] was 0.0433 µg/mL. The IC80 (neutralization of pseudovirus) [21] was 0.2 µg/mL, the IC90 (neutralization of pseudovirus) [21] was > 10 µg/mL and the IC95 (neutralization of pseudovirus) [21] was > 10 µg/mL. The IC50 (neutralization of pseudovirus) [22] was 6.79 µg/mL, the IC80 (neutralization of pseudovirus) [22] was > 10 µg/mL and the IC90 (neutralization of pseudovirus) [22] was > 10 µg/mL. For the same binder, the IC95 (neutralization of pseudovirus) [22] was > 10 µg/mL, the IC50 (neutralization of pseudovirus) [23] was > 10 µg/mL and the IC80 (neutralization of pseudovirus) [23] was > 10 µg/mL. The IC90 (neutralization of pseudovirus) [23] was > 10 µg/mL and the IC95 (neutralization of pseudovirus) [23] was > 10 µg/mL.
